US20060115897A1

Target: C4b (UniProt P0C0L4)
Experiment: cell-based or functional assay

Sequence of C4b (P0C0L4 20-1744): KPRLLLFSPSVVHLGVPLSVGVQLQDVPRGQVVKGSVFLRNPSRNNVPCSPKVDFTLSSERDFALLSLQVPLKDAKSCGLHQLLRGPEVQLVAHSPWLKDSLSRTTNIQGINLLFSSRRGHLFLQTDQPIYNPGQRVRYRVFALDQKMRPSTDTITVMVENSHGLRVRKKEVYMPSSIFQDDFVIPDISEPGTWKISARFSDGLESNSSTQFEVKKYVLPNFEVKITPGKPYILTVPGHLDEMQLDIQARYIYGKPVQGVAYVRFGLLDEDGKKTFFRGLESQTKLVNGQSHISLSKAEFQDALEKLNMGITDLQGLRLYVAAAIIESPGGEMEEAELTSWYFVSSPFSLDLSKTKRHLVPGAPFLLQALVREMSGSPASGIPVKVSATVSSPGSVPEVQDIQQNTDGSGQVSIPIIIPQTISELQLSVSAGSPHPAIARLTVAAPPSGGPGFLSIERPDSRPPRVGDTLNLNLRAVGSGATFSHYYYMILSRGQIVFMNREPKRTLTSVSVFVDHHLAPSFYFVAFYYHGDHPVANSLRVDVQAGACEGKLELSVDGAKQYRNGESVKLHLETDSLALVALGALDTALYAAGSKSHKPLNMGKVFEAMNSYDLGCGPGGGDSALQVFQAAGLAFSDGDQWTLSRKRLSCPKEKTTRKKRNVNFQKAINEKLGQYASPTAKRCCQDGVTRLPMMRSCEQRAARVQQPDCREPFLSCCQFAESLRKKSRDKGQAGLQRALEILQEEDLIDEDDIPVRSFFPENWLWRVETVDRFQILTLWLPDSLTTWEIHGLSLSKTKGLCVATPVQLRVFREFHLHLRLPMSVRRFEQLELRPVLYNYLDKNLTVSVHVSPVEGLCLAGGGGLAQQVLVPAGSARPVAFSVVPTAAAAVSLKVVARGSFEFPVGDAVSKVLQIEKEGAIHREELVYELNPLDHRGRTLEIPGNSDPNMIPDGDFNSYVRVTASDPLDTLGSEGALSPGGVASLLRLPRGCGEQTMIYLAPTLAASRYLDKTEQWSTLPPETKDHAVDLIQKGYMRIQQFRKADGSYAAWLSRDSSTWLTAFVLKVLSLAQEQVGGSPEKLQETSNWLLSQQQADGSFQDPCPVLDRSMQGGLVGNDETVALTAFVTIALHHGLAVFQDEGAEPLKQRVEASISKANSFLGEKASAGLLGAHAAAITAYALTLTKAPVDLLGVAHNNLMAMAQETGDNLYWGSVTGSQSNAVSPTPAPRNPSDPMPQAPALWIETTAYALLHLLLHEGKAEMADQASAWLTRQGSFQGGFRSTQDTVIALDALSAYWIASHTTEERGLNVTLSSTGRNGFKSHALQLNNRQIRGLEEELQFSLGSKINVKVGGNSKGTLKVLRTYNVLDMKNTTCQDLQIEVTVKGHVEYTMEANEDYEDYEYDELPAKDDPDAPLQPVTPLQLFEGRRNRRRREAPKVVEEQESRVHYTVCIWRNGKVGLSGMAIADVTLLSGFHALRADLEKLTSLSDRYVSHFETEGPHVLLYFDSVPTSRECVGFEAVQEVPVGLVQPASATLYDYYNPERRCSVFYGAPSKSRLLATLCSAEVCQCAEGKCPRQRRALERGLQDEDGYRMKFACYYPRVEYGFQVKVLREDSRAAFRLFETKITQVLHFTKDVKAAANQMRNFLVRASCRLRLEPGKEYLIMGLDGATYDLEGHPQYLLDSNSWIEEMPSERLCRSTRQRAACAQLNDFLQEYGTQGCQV

Question: Which time to 50% degradation of the C4bα′ chain (cofactor activity for factor I, densitometry) does the source give for “soluble human CR1 (from UniProt P17927 42-1971) (receptor)” here?
Answer: The time to 50% degradation of the C4bα′ chain (cofactor activity for factor I, densitometry) was 15 min.
